Source: the supplement of paper PMC10126150
± gives the standard deviation of the averaged measurements.

Test system: ATP
Assay: switch fluorescence ratio, 500 uM ATP over buffer (Cy3 cluster intensity, sum of 5 cycles each) (fold (ratio)); higher = stronger signal-on switching upon ATP binding; sequences stand for … in TCGTCGGCAGCGTCAGATGTGTATAAGAGACAGTTTTTTTTTTTTTTTTTTTTTTTTT…TC
Conditions: aptamer strand: ATP DNA aptamer (quencher-CACCTGGGGGAGTATTGCGGAGGAAGG + anchor), 100 nM annealed; ATP concentration: 500 uM
How it was run: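 Between each of five buffer/ATP cycles, the flow-cell was stripped with NaOH and re-annealed. Each cycle imaged Cy3-labelled switching-strand clusters, annealed to 100 nM quencher-labelled ATP aptamer on a modified Illumina MiSeq flow-cell, first in selection buffer and then after 15 min with 500 uM ATP at 22 °C. The fluorescence ratio is summed target-cycle over summed buffer-cycle Cy3 intensity per cluster, averaged per switch-domain sequence, with clusters outside 100-1000 RFU excluded.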
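Note: ATP exposure 15 min at 22 °C before imaging.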

Sequence | switch fluorescence ratio
GTTTGTCAGG | 0.99 ± 0.04
TGTTATAATC | 1.08 ± 0.064
TCTTACGGGG | 1.003 ± 0.01
GGTAAAGCAT | 1.027 ± 0.006
GGGCCGGAAA | 1.01 ± 0.049
GGGGTAGTTT | 1.02 ± 0.027
TGTTTTCATT | 0.973 ± 0.044
TGGAGAAATA | 1.01 ± 0.048
TTTGGGGAAC | 1.02 ± 0.035
TTGCTATGTT | 1.01 ± 0.037
AACGACGGGG | 1.01 ± 0.033
ACTGCGGGAC | 1.51 ± 0.69
ATTAAATACC | 1.25 ± 0.29
GGGGTTCAGC | 0.978 ± 0.038
TTGGGTGGAG | 0.991 ± 0.023
TGGGGCGACG | 0.994 ± 0.034
GGGGTTACGC | 1.03 ± 0.059
CGTGTTTGTT | 0.988 ± 0.022
ACACTTGCCA | 1.09 ± 0.019
GGGTGCGGCG | 0.968 ± 0.035
CTTGGACGGG | 0.9706 ± 0.0021
GGGATAGTGC | 1.01 ± 0.021
CCGTGGGGGT | 1.054 ± 0.0029
AGGGGAGTTT | 1 ± 0.041
TGGGGTGCCG | 1.12 ± 0.039

Sequence | switch fluorescence ratio
GGCAGAATGA | 1 ± 0.018
TTGAGTTTTG | 0.985 ± 0.031
TATAGCATTA | 1.04 ± 0.014
CGGAGAGGCA | 0.974 ± 0.032
GTATTTTGGG | 0.996 ± 0.014
AATTTCGCTT | 1 ± 0.037
TATATTGTAA | 1.01 ± 0.013
AAGGCTAAGC | 1.024 ± 0.0026
ATCTCTGTAA | 1.264 ± 0.0068
CAAATTAGGC | 1.06 ± 0.1
GGGCAAGGTC | 1.03 ± 0.034
AGCAAGGGGC | 1.02 ± 0.023
AAAGCCTGGG | 0.966 ± 0.027
AAATGAGTTA | 0.99 ± 0.019
CCAGGTTAAT | 1.036 ± 0.0033
TCTTGGACGG | 0.985 ± 0.021
GGGCTAAATC | 1.01 ± 0.06
AGTATATCGC | 1 ± 0.022
AATGAGGGCG | 0.9825 ± 0.0018
TTGATTGGCG | 1.07 ± 0.058
ACTTGAGGGT | 1.05 ± 0.094
TCAGGCGTGA | 0.987 ± 0.035
CATTTGATCG | 1.03 ± 0.013
TCAAGAATGG | 1 ± 0.059
CGTAAATTGG | 1.02 ± 0.013

Sequence | switch fluorescence ratio
GCGGGACCCG | 1.01 ± 0.016
GTGTCAAGTA | 0.961 ± 0.016
ATCAGGTAAG | 0.9682 ± 0.0024
TGGGGCTAAG | 1.01 ± 0.034
AGTAGAATCA | 1.01 ± 0.026
TAGTTGTAAA | 1.03 ± 0.075
ATCGGTCTTG | 1 ± 0.004
GAGAAACCGG | 1.03 ± 0.019
GCTATAGTAT | 0.998 ± 0.0056
GATCTGGCGG | 1.01 ± 0.034
CTTAGTTAGT | 0.993 ± 0.01
GCATGAATCT | 1.014 ± 0.0084
CAAATGGTTC | 0.9582 ± 0.0043
GACGGGCTGT | 0.985 ± 0.029
GAGGAAGTCT | 1.03 ± 0.026
CACCATGTTC | 0.989 ± 0.032
TTTACGGTCA | 1.04 ± 0.039
CCGGGGGAAC | 1.14 ± 0.09
TTATGTACTT | 1.05 ± 0.021
CACGGCTCGC | 1.04 ± 0.015
CGGGAGCTTT | 1.07 ± 0.012
AGAATGGCAG | 0.991 ± 0.029
GGGTTCAGGT | 1.0068 ± 0.00055
AGATGGCATT | 1 ± 0.048
GCTATTAGTG | 0.9892 ± 0.0051

Sequence | switch fluorescence ratio
AAGTATTTTT | 1.018 ± 0.0058
ATACAAGACT | 1.06 ± 0.03
GGGGTGATGC | 1.07 ± 0.061
ATATATGCCG | 0.985 ± 0.044
CGCCTCATGA | 1.04 ± 0.029
TAAAAGCGGG | 1 ± 0.013
TTGACAGGTT | 1.15 ± 0.19
GCGGTTAGAA | 1.02 ± 0.026
AGGTTTTGCA | 0.991 ± 0.019
ATGAGTAAAG | 0.999 ± 0.025
GATTTTGCCA | 0.9675 ± 0.0045
ACATTTTTTT | 1.01 ± 0.029
GATGTACACG | 1.013 ± 0.003
AGGTATGGGG | 0.998 ± 0.034
TACTTAGGTT | 0.98 ± 0.024
GGTGTGTGGT | 1.002 ± 0.0029
GGTCTAGGCA | 0.987 ± 0.02
CGCTTTTTTG | 1.01 ± 0.032
TTAGTAATAT | 1.17 ± 0.12
TGACGGGTTT | 1.06 ± 0.12
TGTAGTCCGT | 0.982 ± 0.0055
GCATATTGGG | 0.9866 ± 0.0042
TTATGTTTTG | 0.999 ± 0.026
CATAAAAACT | 1.06 ± 0.017
TCTCGCCTTT | 0.975 ± 0.066
